Experimental data taken from patent publication US20250340630A1 (SICHUAN KELUN BIOTECH BIOPHARMACEUTICAL, published 2025).
Numbering of substitutions follows the chain as printed.

B1: mouse antibody 6B9.22 (antibody, V domains shown)
VH: QVQLQQSGAELVKPGASVKMSCKAFGYTFTSYPIEWMKQNHGKSLEWIGNFHPYNDDTKYNEKFKGKAKLTVEKSSSTVYLELSRLTSDDSAVYYCARTYYGNSFAYWGQGTLVTVSS
VL: DIVMTQSPSSLTVTAGEKVTMSCKSSQSLLNSGNQKNYLTWYQQKPGQPPKLLIYWASSRDSGVPHRFTGSGSGTDFTLTISSVQAEDLAFYYCQNDYFYPFTFGAGTKLELK
notes: Purified from hybridoma
B2: humanized antibody 1E9.2-hz12 (antibody, human IgG1, kappa, V domains shown)
VH: EVQLVESGGGLVKPGGSLRLSCAASGFSFSNSAMSWVRQAPGKGLEWVSTISSGDSYTYYADSVKGRFTISRDNAKNSLYLQMNSLRAEDTAVYYCARQGYGNALDYWGQGTLVTVSS
VL: DIVMTQSPDSLAVSLGERATINCKSSQSLLQSGNQKNYLTWYQQKPGQPPKLLIYWSSTRESGVPDRFSGSGSGTDFTLTISSLQAEDFAVYYCQNDYYYPLTFGGGTKVEIKR
notes: Human IgG1 / kappa constant regions
B3: humanized antibody 1E9.2-hz15 (antibody, human IgG1, kappa, V domains shown)
VH: B2 VH
VL: DIVMTQTPLSLPVTPGEPASISCKSSQSLLNSGNQKNYLTWYLQKPGQSPQLLIYWSSTRESGVPDRFSGSGSGTDFTLKISRVEAEDFGVYYCQNDYYYPLTFGGGTKVEIKR
notes: as for B2
B4: humanized antibody 1E9.2-hz17 (antibody, human IgG1, kappa, V domains shown)
VH: B2 VH
VL: B3 VL with N31Q, Q35G
notes: as for B2
B5: humanized antibody 1E9.2-hz13 (antibody, human IgG1, kappa, V domains shown)
VH: B2 VH
VL: B2 VL with F89V
notes: as for B2
B6: humanized antibody 1E9.2-hz31 (antibody, human IgG1, kappa, V domains shown)
VH: B2 VH with W47G, S49A
VL: B2 VL with Q31N
notes: as for B2
B7: humanized antibody 1E9.2-hz21 (antibody, human IgG1, kappa, V domains shown)
VH: B2 VH with W47G
VL: B2 VL with Q31N
notes: as for B2
B8: humanized antibody 1E9.2-hz41 (antibody, human IgG1, kappa, V domains shown)
VH: B2 VH with W47G, S49A, A61P
VL: B2 VL with Q31N
notes: as for B2
B9: humanized antibody 1E9.2-hz14 (antibody, human IgG1, kappa, V domains shown)
VH: B2 VH
VL: B2 VL with Q35N
notes: as for B2
B10: chimeric antibody 1E9.2-hz00 (antibody, human IgG1, kappa, V domains shown)
VH: EVMLVESGGGLVKPGGSLKLSCAASGFSFSNSAMSWVRQTPEKRLEGVATISSGDSYTYYPDSVKGRFTISRDNAKNSLYLQMSSLRSEDTAVYYCARQGYGNALDYWGQGTSVTVSS
VL: DIVMTQSPSSLTVTAGEKVTMSCKSSQSLLNSGNQKNYLTWYQQKPGQPPKLLIYWSSTRESGVPDRFTGSGSGTDFTLTISSVQAEDLAVYYCQNDYYYPLTFGAGTKLELKR
notes: Mouse variable regions on human IgG1 / kappa constant regions; expressed in Expi293F; also called 1E9.2 chimeric antibody
B11: mouse antibody 1E9.2 (antibody, V domains shown)
VH: B10 VH
VL: B1 VL with A57S, S59T, D61E, H66D, F91V, F99Y, F102L
notes: Purified from hybridoma
B12: chimeric antibody 6B9.22-hz00 (antibody, human IgG1, kappa, V domains shown)
VH: B1 VH
VL: B10 VL with S57A, T59S, E61D, D66H, V91F, Y99F, L102F
notes: Mouse variable regions on human IgG1 / kappa constant regions; expressed in Expi293F
B13: chimeric antibody 9C8.1-hz00 (antibody, human IgG1, kappa, V domains shown)
VH: QVQLQQSGAELVRPGSSVKISCKASGYAFSNYWMNWVKQRPGQGLEWIGQIYPGDGDTNYNGKFKGKATLTTDKSSSTAYMQLSSLTSEDSAVYFCARLYYGNSFAYWGQGTLVTVSS
VL: B10 VL with M21V, S57A, E87A, V91I, Y99F, L102F, A106G, L112I
notes: as for B12
B14: mouse antibody 19H11.6 (antibody, V domains shown)
VH: B10 VH with Y57F, S63T, S85R
VL: B1 VL with S22T, A57S, S59T, D61E, H66D, F91V, F99Y, F102L
notes: Purified from hybridoma
B15: chimeric antibody 16A9.11-hz00 (antibody, human IgG1, kappa, V domains shown)
VH: B10 VH with N74T, A97T, L105M
VL: B10 VL
notes: as for B12
B16: chimeric antibody 19H11.6-hz00 (antibody, human IgG1, kappa, V domains shown)
VH: B10 VH with Y57F, S63T, S85R
VL: B10 VL with S22T
notes: as for B12
B17: mouse antibody 16A9.11 (antibody, V domains shown)
VH: B10 VH with N74T, A97T, L105M
VL: B1 VL with A57S, S59T, D61E, H66D, F91V, F99Y, F102L
notes: Purified from hybridoma
B18: mouse antibody 19G10.14 (antibody, V domains shown)
VH: QVQLKESGPGLVAPSQSLSITCTVSGFSFTSYGVHWVRQPPGKGLEWLGVIWAGGSTDYNAALMSRLSIRKDNSKSQVFLKMNSLQIADTAMYYCARDGHGKVGFDVWGAGTTVTVSS
VL: DIVMTQSPSSLSVSAGEKVTMNCKSSQSLLNSGNQKNYLAWYQQKPGQPPKLLIYGASTRESGVPDRFTGGGSGTDFTLTISSVQAEDLAIYYCQNDHFYPFTFGSGTKLEIK
notes: Purified from hybridoma
B19: mouse antibody 9C8.1 (antibody, V domains shown)
VH: B13 VH
VL: B1 VL with M21V, S59T, D61E, H66D, E87A, F91I, A106G, L112I
notes: Purified from hybridoma

Tests used:
human Claudin18.2 [1] = molecular target: T1, human Claudin18.2 (human, UniProt P56856-2 1-261); assay: flow cytometry on Ba/F3-Claudin18.2 cells, purified mouse antibody
T1 construct: whole, on cells; Four-transmembrane protein, always presented on cells (transfected lines or NUGC-4 with endogenous expression); also called CLDN18.2
Description: (§1) The affinity of the candidates to Claudin18.2 was measured using FACS. […] Ba/F3-Claudin18.1 and Ba/F3-Claudin18.2 cells were incubated with the purified mouse antibodies at various concentrations on ice for 30 min and mouse IgG was used as negative control (Thermo Fisher, Cat: 31903), followed by washing with FACS buffer (PBS+2% FBS) twice.

human Claudin18.1 = molecular target: T2, human Claudin18.1 (human, UniProt P56856 1-261); assay: FACS titration on Ba/F3-Claudin 18.1 cells
T2 construct: whole, on cells; Presented on transfected cells; also called CLDN18.1
Description: as §1

human Claudin18.2 [2] = molecular target: T1, human Claudin18.2; assay: cell-based or functional assay
human Claudin18.2 [3] = molecular target: T1, human Claudin18.2; assay: flow cytometry (IntelliCyt) on Ba/F3-Claudin18.2 cells
Source text: In order to evaluate the anti-Claudin18.2 humanized antibodies, codon optimized cDNAs of the heavy chains and the light chains of the candidate humanized antibodies from Example 6 were synthesized and ligated into pcDNA3.4 (by Nanjing Genscript Biotech Corporation). Expi293F cells (purchased from Thermo Incorporation) were co-transfected with pcDNA3.4 coding the heavy chain and light chain of each antibody. The antibodies were purified from the supernatant using protein A (MabSelect SuRe, GE). The affinity of the humanized antibodies to Claudin18.2 was determined using Ba/F3-Claudin18.2 cells which over-expressed human Claudin18.2. Ba/F3-Claudin18.2 cells (60000 in 10 ul buffer) were incubated with purified humanized antibodies on ice for 30 min, followed by washing with buffer (PBS+2% FBS) twice and addition of Alexa647-labeled goat-anti-human IgG Fc antibody (1:500 dilution). The cells were incubated on ice for another 30 min and analyzed by IntelliCyt.

human Claudin18.2 [4] = molecular target: T1, human Claudin18.2; assay: flow cytometry on Ba/F3-Claudin18.2 cells, chimeric antibody
Description: The affinity of the anti-Claudin18.2 chimeric antibodies to Ba/F3-Claudin18.2 cells were determined. […] The cells were then analyzed by FACS.

| Binder | EC50 (human Claudin18.2 [1]) [nM] | Max MFI (human Claudin18.2 [1]) [MFI] | binding result (human Claudin18.1) | ADCC EC50, Ba/F3-Claudin18.2 target cells, NK-92MI_mCD16 effectors (human Claudin18.2 [2]) [µg/mL] | ADCC Max killing rate %, Ba/F3-Claudin18.2 target cells (human Claudin18.2 [2]) [%] | Max MFI (human Claudin18.2 [3]) [MFI] | further results |
| --- | --- | --- | --- | --- | --- | --- | --- |
| B1 | 3.64 | 3.62e+06 | no binding (tested: about 50 nM) | – | – | – | – |
| B2 | – | – | – | 0.091 | 64.4 | – | – |
| B3 | – | – | – | 0.08 | 66.2 | 8.99e+06 | – |
| B4 | – | – | – | 0.113 | 59.6 | 5.9e+06 | – |
| B5 | – | – | – | 0.068 | 63.8 | – | – |
| B6 | – | – | – | – | – | 1.06e+07 | – |
| B7 | – | – | – | – | – | 1.46e+07 | – |
| B8 | – | – | – | 0.048 | 55.4 | 1.13e+07 | – |
| B9 | – | – | – | 0.097 | 60.5 | – | – |
| B10 | – | – | – | 0.049 | 59.8 | 1.12e+07 | EC50 (human Claudin18.2 [4]): 11 nM; Max MFI (human Claudin18.2 [4]): 1.18e+07 MFI |
| B11 | 8.51 | 5.08e+06 | no binding (tested: about 50 nM) | – | – | – | – |
| B12 | – | – | – | – | – | – | EC50 (human Claudin18.2 [4]): 18.2 nM; Max MFI (human Claudin18.2 [4]): 1.67e+07 MFI |
| B13 | – | – | – | – | – | – | EC50 (human Claudin18.2 [4]): 23.9 nM; Max MFI (human Claudin18.2 [4]): 1.44e+07 MFI |
| B14 | 10.9 | 6.01e+06 | no binding (tested: about 50 nM) | – | – | – | – |
| B15 | – | – | – | – | – | – | EC50 (human Claudin18.2 [4]): 10.5 nM; Max MFI (human Claudin18.2 [4]): 1.24e+07 MFI |
| B16 | – | – | – | – | – | – | EC50 (human Claudin18.2 [4]): 11.6 nM; Max MFI (human Claudin18.2 [4]): 1.3e+07 MFI |
| B17 | 10.2 | 5.82e+06 | no binding (tested: about 50 nM) | – | – | – | – |
| B18 | 16.3 | 3.5e+06 | no binding (tested: about 50 nM) | – | – | – | – |
| B19 | 9.4 | 4.97e+06 | no binding (tested: about 50 nM) | – | – | – | – |
